Experimental data reported in the supplement of paper PMC10724198.
± gives the standard deviation of the averaged measurements.

Tested on: Saccharomyces cerevisiae
Assay: protein stability index of tFT-peptide fusion (C-terminal peptide) (PSI (0-1 scale)); higher = more stable (slower turnover)
Details: temperature: 30 C
Description: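 MPS profiling in S. cerevisiae of the yeast C-terminome library: the last 12 aa of each annotated ORF are fused to the C-terminus of a sfGFP-mCherry timer, after a GGGS linker. Cells are FACS-sorted into 8 mCherry/sfGFP bins and deep-sequenced. PSI runs from 0 (unstable) to 1 (stable); wild type and das1Δ backgrounds, two technical replicates each.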

[1] = genetic background: das1 deletion

| Sequence | protein stability index [1] | protein stability index (genetic background: wild type) |
| --- | --- | --- |
| GQLLSGSCLLNM [YBR226C C-terminal 12 aa] | 0.686 ± 0.013 | 0.679 ± 0.053 |
| QNLLPAEKFTHN [CTR1 C-terminal 12 aa] | 0.6962 ± 0.0032 | 0.663 ± 0.0075 |
| DLESLTAKLIQG [HCA4 C-terminal 12 aa] | 0.7 ± 0.022 | 0.67282 ± 0.00041 |
| IFVYPLFLLSTF [YEL053W-A C-terminal 12 aa] | 0.482 ± 0.051 | 0.335 ± 0.0099 |
| DTVKILTELFNL [SEC53 C-terminal 12 aa] | 0.707 ± 0.011 | 0.732 ± 0.062 |
| GPDAPLSKMKYE [SCS7 C-terminal 12 aa] | 0.684 ± 0.0086 | 0.704 ± 0.0071 |
| LQRLCKKYPEIY [RFA3 C-terminal 12 aa] | 0.709 ± 0.015 | 0.703 ± 0.02 |
| FLILVFVMKKNH [YDR018C C-terminal 12 aa] | 0.287 ± 0.0071 | 0.269 ± 0.017 |
| NKHDLHLRPETY [YAR010C C-terminal 12 aa] | 0.658 ± 0.018 | 0.678 ± 0.021 |
| VDMTSIFDFMLN [POL1 C-terminal 12 aa] | 0.7408 ± 0.0055 | 0.709 ± 0.025 |
| KHVMMDMQQPSQ [MRPS17 C-terminal 12 aa] | 0.699 ± 0.022 | 0.674 ± 0.027 |
| MNKKHHKPIPFD [RRD2 C-terminal 12 aa] | 0.762 ± 0.027 | 0.697 ± 0.0073 |
| EKPPKEEPESDI [TIM54 C-terminal 12 aa] | 0.711 ± 0.032 | 0.666 ± 0.0042 |
| LGGLLTVLIWFL [KRE1 C-terminal 12 aa] | 0.335 ± 0.004 | 0.332 ± 0.014 |
| QSVAILDGKLVW [YGL258W-A C-terminal 12 aa] | 0.677 ± 0.015 | 0.65 ± 0.021 |
| MDLKRFKGEFSF [PEX5 C-terminal 12 aa] | 0.69824 ± 0.00026 | 0.685 ± 0.036 |
| DNVEQRVLKQYM [EMC3 C-terminal 12 aa] | 0.6864 ± 0.0062 | 0.651 ± 0.0092 |
| QPLLPCFFRRAV [YER147C-A C-terminal 12 aa] | 0.691 ± 0.011 | 0.4308 ± 0.0042 |
| STKILETSANYL [RVB1 C-terminal 12 aa] | 0.69 ± 0.019 | 0.679 ± 0.047 |
| IEEAASSLGFKR [PES4 C-terminal 12 aa] | 0.726 ± 0.027 | 0.701 ± 0.023 |
| TVSNETKEARET [SPT14 C-terminal 12 aa] | 0.6843 ± 0.0053 | 0.6715 ± 0.0044 |

| Sequence | protein stability index [1] | protein stability index (genetic background: wild type) |
| --- | --- | --- |
| RRPAVIKALRGE [URE2 C-terminal 12 aa] | 0.6904 ± 0.00095 | 0.693 ± 0.023 |
| HPWFAEYYHHAS [PHO85 C-terminal 12 aa] | 0.7438 ± 0.0043 | 0.7174 ± 0.0026 |
| ATCGSSTYFARK [MCO8 C-terminal 12 aa] | 0.6938 ± 0.0026 | 0.746 ± 0.054 |
| PSLRTRSSYTEE [FLR1 C-terminal 12 aa] | 0.6845 ± 0.0013 | 0.717 ± 0.043 |
| KADNWKCKIQSA [GDA1 C-terminal 12 aa] | 0.69 ± 0.018 | 0.641 ± 0.011 |
| VSSLRKHGEHYS [TRM82 C-terminal 12 aa] | 0.704 ± 0.021 | 0.6079 ± 0.0053 |
| AGHSNTLQVSTV [CDC19 C-terminal 12 aa] | 0.705 ± 0.0082 | 0.687 ± 0.014 |
| RQNTLSLWRYRK [RPL15A C-terminal 12 aa] | 0.682 ± 0.0084 | 0.682 ± 0.039 |
| RHISRLSRLLCR [YGR273C C-terminal 12 aa] | 0.6071 ± 0.00082 | 0.621 ± 0.027 |
| IIDELEQIALQQ [BRE2 C-terminal 12 aa] | 0.69735 ± 0.00015 | 0.748 ± 0.04 |
| YFKETLYKLANE [HIS5 C-terminal 12 aa] | 0.687 ± 0.023 | 0.705 ± 0.085 |
| RDLLRDDKVALI [SLD5 C-terminal 12 aa] | 0.715 ± 0.023 | 0.6977 ± 0.0027 |
| GNTGSGGYDNAW [RPB3 C-terminal 12 aa] | 0.704 ± 0.052 | 0.723 ± 0.026 |
| FYSLCEKGGYLK [BPT1 C-terminal 12 aa] | 0.679 ± 0.014 | 0.66733 ± 0.00062 |
| SRSGPDSTNIKL [MPP10 C-terminal 12 aa] | 0.688 ± 0.011 | 0.667 ± 0.0034 |
| GDVSNLPYLDEL [QCR2 C-terminal 12 aa] | 0.694 ± 0.013 | 0.722 ± 0.039 |
| EANFWTAALEYE [THI21 C-terminal 12 aa] | 0.7334 ± 0.0016 | 0.6857 ± 0.003 |
| LFYVMTMTKFLF [PHM6 C-terminal 12 aa] | 0.5199 ± 0.0025 | 0.364 ± 0.0018 |
| YISKAGSYEVRY [APM4 C-terminal 12 aa] | 0.68349 ± 0.00019 | 0.666 ± 0.03 |
| KKKSKSSKKVKV [ESF1 C-terminal 12 aa] | 0.707 ± 0.017 | 0.653 ± 0.0087 |
